Assay results taken from the DeepSol protein solubility set.

Assay: soluble on expression in E. coli; label from the status in PepcDB or PDB records
For “AHHHHHHGSEIYEGKAKKMIPLDEDKFIMEFKDDATAFDGVKKAKFVGKGWLNAQISAKLFKLLEDHGIKTHFIGVAGGNRLIVERLEMYPIEVVVRNVVAGSLKKRLPLPEGYELPEPIVELYYKSDELHDPMINYYHARILGISEEEIKEMERIALKVNEILKKFFREKGIILVDFKLEFGKNKKGEIVLADEISPDTCRFWDVETKKSLDKDVFRFDKGDLIEAYKELYKRLIGEEPQI”, the “soluble on expression in E. coli” value was “not soluble”. In the case of “MSLCWILMASHAQAEPFKIGLLVWSDQIAGQVAMRAGLEAEAAHLQQQARDKNLPSFTLDIKLAGDGPAGVEKQIQQMQAMVDDRVDLIIVQPTDNAALSSPLQAANQAGIPVVAYDQYISGGHLSAFVTSNNYQAGFLDGEYMAHHFADDHTIQIILVEYPYVSSTIDRVDGFFDALNQYKQPYRILRSYQAVEPVQGRAVGQQILQDFPQPGSVDALFTINDGGGLAIVDELEKAGRHELFVATIDGDPNSVARIRKGSIIKIDSAQFCGPIGAEAMRAAYAILTAGKVHEHWLVPVFPITRQSVAHYPGWSGPIPEHYSNPCLTFLCREGHHHHHH”, the “soluble on expression in E. coli” value is reported as “soluble”. In the case of “MKSAEQWIDELQLESHPEGGFYRETIREVLKDGRRAPFSSIYFLLTDDNISHFHRIDADEVWYYHAGDSLTIHMINPDGEYTTATLGTDIQNGDVLQYVVPKGTIFASSIEFSNTYSLVGCMCQPAFEFKQFELFKQSELITQYPHLKSVIEKYALK”, the “soluble on expression in E. coli” value is reported as “soluble”. With “MKKQQFIDMQEQGTSTIPNLLLTHYKQLGLNETELILLLKIKMHLEKGSYFPTPNQLQEGMSISVEECTNRLRMFIQKGFLFIEECEDQNGIKFEKYSLQPLWGKLYEYIQLAQNQTQERKAEGEQKLEHHHHHH” the “soluble on expression in E. coli” value was “soluble”. With “MGSDKIHHHHHHMTIMSIGIIIASHGEFAAGIHQSGSMIFGEQEKVQVVTFMPNEGPDDLYAKFNNAVAAFDAEDEVLVLADLWSGSPFNQASRVMGENPERKFAIITGLNLPMLIQAYTERLMDAAAGVEKVAANIIKEAKDGIKALPEELNPVEEVASAAAAPVAQTAIPEGTVIGDGKLKINLARLDTRLLHGQVATAWTPDSKANRIIVASDNVAKDDLRKELIKQAAPGNVKANVVPIQKLIEISKDPRFGETHALILFETPQDALRAIEGGVPIKTLNVGSMAHSTGKTLVNTVLSMDKEDVATFEKMRDLGVEFDVRKVPNDSKKDLFDLINKANVK” the “soluble on expression in E. coli” value was “not soluble”. With “MIDMTSKKRAVAPRDLYRRWPWANTAGMEPDMVRLQIFVQNLERAVIGDGRMRPVTSPSEFCDNIGISHATLGRILRGEVIPRFDTIDKLERGVGRALFPPFEDVRVRGNKG” the “soluble on expression in E. coli” value was “not soluble”. With “HFVKSVEDKAISVTLAQGNIEQNLKWDPNYFYSTLAIYQKLITENLGKTDLIILPESALPTLENAITPFFEGLERAAKETKTEIMVGTVFQDTKSGKLLNSIMTAGNPDFPYQPNTQNRYNKHHLVPFGEYVPLESILRPLNSVFNLPMSAFQSGEAVQPSLIAKKRAFSPAICYEIIFGEQVRQNLKQDTDYLLTLSNDAWFGDSIGPWQHLQMARMRALELGKPLIRATNTGISVFVDAQGKVLAQAPQFIETTLTYKIAPAEGKTPYSVLGNMPLYALSLLFLLLHS” the “soluble on expression in E. coli” value was “not soluble”. In the case of “QQMQAESGFVQHVGFKCDNCGIEPIQGVRWHCQDCPPEMSLDFCDSCSDCLHETDIHKEDHQLEPIYRS”, the “soluble on expression in E. coli” value is reported as “soluble”. With “SWVWNQMFVLEEFSGPEPILVGRLHTDLDPGSKKIKYILSGDGAGTIFQINDITGDIHAIKRLDREEKAEYTLTAQAVDFETNKPLEPPSEFIIKVQDINDNAPEFLNGPYHATVPEMSILGTSVTNVTATDADDPVYGNSAKLVYSILEGQPYFSIEPETAIIKTALPNMDREAKEEYLVVIQAKDMGGHSGGLSGTTTLTVTLTDVNDNPPKFAQSLYHFSVPEDVVLGTAIGRVKANDQDIGENAQSSYDIIDGDGTALFEITSDAQAQDGVIRLRKPLDFETKKSYTLKVEAANIHIDPRFSSRGPFKDTATVKIVVE” the “soluble on expression in E. coli” value was “soluble”. For “AGMSLTQVSGPVYVVEDNYYVQENSMVYFGAKGVTVVGATWTPDTARELHKLIKRVSRKPVLEVINTNYHTDRAGGNAYWKSIGAKVVSTRQTRDLMKSDWAEIVAFTRKGLPEYPDLPLVLPNVVHDGDFTLQEGKVRAFYAGPAHTPDGIFVYFPDEQVLYGGCILKEKLGNLSFADVKAYPQTLERLKAMKLPIKTVIGGHDSPLHGPELIDHYEALIKAAPQSS”, the “soluble on expression in E. coli” value was “soluble”. With “MNDETPRCPYNSLYKPLNLIKSKPDGCFKHNGQCTYGKNLVESVDDGNSRTPYNSIYEPLSLNKPKPDGRSSNGKKPVDNEYVNLPVLSEEQKLADKLAAKLRKLEVKEPKSKKRGSKERKKKKSEPVESTYESLATIEGSTNYSGPVTTESLESNVKFHHASQTAYIGVYSSADAEAQVKNRGEFALYHLFEVGNGIDHLTATLPFGGLWIPNRSQTLLAQSTRSILQIVRIDSDETRGHLL” the “soluble on expression in E. coli” value was “not soluble”. With “MGSDKIHHHHHHMKILVAMSGGVDSTVTAYKLKNLGHEVIGCYMKLHGKPNYHEENIKKVEKVANFLQIPYHILDLQEDFKNKVYMPFVDTYKEGKTPNPCALCNRFIKLGKLLEFAKSLGCEKLATGHYARLENNLIKTAVDESKDQSYFLASADKEALKYLIFPLGEMKKEDVKKFASTIEVLKSFATQKESSEICFVEDTYVQVLDQFMDTKIPGEVLDSSGKVVGKHEGYMHYTIGKRRGFEVRGAHEPHFVLKINPKQNQIIVGTKEELKISEFNLKNINLFIDAKELDCEVKIRYRSKSTPCKVEIYEDKSAKIILKDPVYGLASGQMAVFYDHDKVIASGFIE” the “soluble on expression in E. coli” value was “not soluble”. With “FGIIRGLMMHVTLVEINVHDDKVEQFIDVFRQNHLGSIKEPGNLRFDVLQDPQVLTRFYIYEAYVDEQAVAFHKTTPHYKTCVEQLEPLMTGPRTKKVFMGL” the “soluble on expression in E. coli” value was “not soluble”. In the case of “LQEPMYVYSHDGLLIAIFGEIRRYPVQIKEVPEQLKQAFLATEDARFYEHSGIDYKGIARAIWLLATTNEKRVPGGSTITQQVARQFFLNSEYSYKRKLAEILLARKIESQLKKDEILELYLNKSFFGNRAYGIAAAAEFYYGKKLNELNLDEMASLAGIPKFPSS”, the “soluble on expression in E. coli” value is reported as “not soluble”. For “KDFLNPKYTLENFIVGEGNRLAYEVVKEALENLGSLYNPIFIYGSVGTGKTHLLQAAGNEAKKRGYRVIYSSADDFAQAMVEHLKKGTINEFRNMYKSVDLLLLDDVQFLSGKERTQIEFFHIFNTLYLLEKQIILASDRHPQKLDGVSDRLVSRFEGGILVEIELDNKTRFKIIKEKLKEFNLELRKEVIDYLLENTKNVREIEGKIKLIKLKGFEGLERKERKERDKLMQIVEFVANYYAVKVEDILSDKRNKRTSEARKIAMYLCRKVCSASLIEIARAFKRKDHTTVIHAIRSVEEEKKKDRKFKHLVGFLEKQAFDKIC”, the “soluble on expression in E. coli” value was “soluble”. With “MRLDYALFSQHLVNSREKAKALVLKNQVLVNKMVVSKPSFIVKENDKIELIAEKLFVSRAGEKLGAFLETHFVDFKGKVVLDVGASKGGFSQVALLKGAKRVLCVDVGKMQLDESLKQDKRIECYEECDIRGFKTPETIDLALCDVSFISLYYILEAILPLSDEFLTLFKPQFEVGRGIKRNKKGVVVDKEAILNALENFKNHLKTKDFQILKIQESLVKGKNGNVEFFIHFKRA” the “soluble on expression in E. coli” value was “not soluble”. With “MKKLYIITGPAGVGKSTTCKRLAAQLDNSAYIEGDIINHMVVGGYRPPWESDELLALTWKNITDLTVNFLLAQNDVVLDYIAFPDEAEALAQTVQAKVDDVEIRFIILWTNREELLRRDALRKKDEQMGERCLELVEEFESKGIDERYFYNTSHLQPTNLNDIVKNLKTNPRFIFCMAGDPLEHHHHHH” the “soluble on expression in E. coli” value was “soluble”.
